Source: the supplement of paper PMC12636428

Tested on: Saccharomyces cerevisiae
Test: transcriptional activation domain activity (GFP:mCherry ratio, weighted mean of sorted bins, harmonized to initial dataset scale) (arbitrary fluorescence ratio units); higher = stronger transcriptional activation
Conditions: beta-estradiol 1 µM; induction time 4 h
Outline: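 The listed activation activity is a read-weighted mean of bin median fluorescence, averaged across barcodes and linearly mapped onto the initial dataset scale. Barcoded tiles, fused to an estradiol-inducible synthetic transcription factor, were integrated at URA3 in yeast diploids bearing a GFP reporter. Cells were held 4 hours at 30 °C in SC with 1 uM beta-estradiol, sorted into 8 GFP:mCherry bins, and sequenced, and tiles with fewer than 50 reads were excluded.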

| Sequence | transcriptional activation domain activity |
| --- | --- |
| SFLIFLLCEYARHVLVTSITVPHYLEYADVWRGNGQMDFRLLIRMFSTDTRRK | 45000 |
| FQAQGDDELTVVEGDALWIIEQEGDEWWKCRNIKGDEGVVCVVIPRPTGAGRL | 36300 |
| ITALVIFWSIPVAFVGSLSNLDSLTNKVHFLRFLNHLPKKLKGLVTSLLPTIL | 34700 |
| NGGLSELKERLDEGRASYAYVKVTYSNDKESTREKFILVIWIGSSCKVMRKAK | 42900 |
| MIMILLVAVLYFLLFRFDLLGLFYCQLFLLSSHLRFVLSTLYLNGSHHLLFFF | 34000 |
| SIDSAAHHDNSTIPLDFMPRDALHGFDWSEEDDMSDGLPFLKTDPNNNGFFGD | 69800 |
| MSTQGPAKRRGAQATDKPVKRTRVSRACDQCRIAREKCDGAQPTCSTCSTSRR | 36700 |
| MTVIRFLKMIGPFFFLLLSFLLFPFFFFFIPFKMTLLSFLLLFPLFILHSVHC | 47500 |
| LIVVTLSWDVAVIITFLKHRITLRRLKMQSFLSLSFLFKMLIICIFRFFIGVC | 88200 |
| KKAKKGGDEAGAKGSGKPKKPAGEADGSVAAEGGAAKGKARKAASSEPKKGAK | 27900 |
| GRRRVWTSLLDRGAGGEGGAGYVCGVTIDEGSNISGDHIQSTCILVDEYCELC | 74500 |
| EHRVMSAKIKAGELIDNGRFVDEKSFEKPPIHFHLICDHNIRVLLIIIHHSLY | 21300 |
| DGGEAGEGGTEGAGGGAGGEEGQQGKRPEEGKRKERHRPAEEHGKEKNHGRGE | 30700 |
| MYLEVRCQLLGCMAIWWDNWFRLDLLSLVSAYRILLLCMGEFLIWKFWFIRLF | 60000 |
| SSLSSSSFIKSHPGPDPFQQLSSAEHPNNHSSDDEHSGSQPLPLDSITIGIPP | 53200 |
| MVTVGILHYLLIGNLLTNVLFGVYVQMAWKCSCIFYRKYQMGQVHSYHLFSFI | 80900 |
| MDGVFGDCFFFLCFIFVFCFITFFFFFGLLLLLCCYGLDGGYVLVFFFLFFFV | 33500 |

| Sequence | transcriptional activation domain activity |
| --- | --- |
| MLRVIVLLIVIDHLLYLPWLYFATYNARLLSCQSSTGRIYIERNCHSHSYGDK | 50700 |
| MLLAMGWKVATGLQTLSIFRRDGFLYFLVWINLINTMIVLFARPTLLFVTIFF | 51900 |
| MCGLVFLFLFPFVFSSFIGGVAIFFFSYFFYFIYFILQHTRILTCTWSVFLLF | 75400 |
| SNGTSLFVTCWVALNVFFHFYRLPLRWDFFFVFADRAGLIFIVNLPLLYLLAA | 59500 |
| NSTIPLDFMPRDALHGFDWSEEDDMSDGLPFLKTDPNNNGFFGDGSLLCILRS | 109000 |
| ISLCLLHCVIMVFGLGLQLLVPSIYTRIEHVSYESTWNFAYYCAGWFMLKVCI | 38100 |
| VLGQISTVLIQYLFNPAYDLLSYCFNWYLDQCIVYLLLSIILSAPTIGAFVYV | 46400 |
| ILLEVLGKVRGDHTPKRQETSVQGIRRRFRDDLAFLCEYDKGGIACTAIGIEE | 12500 |
| LLLLLLYFFLFLFLFLFLCSQVLCLGQVDLVDLEKPFVFQSFFEIFPTLLFLP | 35100 |
| SMLNGFAGLDDIPMENILRFLNRFVVNNLLLDILCQCSRHARRTLAGNIFRAA | 47000 |
| LYMLKIVNWAVLYASLILATLLWCTIFIIYRILKVGGVTAGMRAYHRVIELLV | 83500 |
| FLWGGRHGFVGFCIPLILLFFMLLSCISFCISILHFFFVLSFLLNFFCEFFLR | 36100 |
| GGGGGGAEGARGANESGGRGDGRRRGAGARARARQGGRGRGGGGRGGTKGGRG | 9940 |
| SKSRSSSSSSSSSSSSSSSSSSSESEKSHSKHKSKSKSKSKARKSKSKSKHRG | 18100 |
| KQYCVRPNSGRIEPGKSVEVTVLLQAMKQEPPMDAKCRDKFLVQSVAVTADKE | 31600 |
| MARNIYVIYIPKSICCSLPLSVPLSLLPLPSLPLFPSLTSTLLFFVLFHFFLL | 49600 |
| GAAATPAKPLGFGATSTATTGGLFGNTGAAPAAGGGLFGATATSHQLLVLVAV | 85800 |
